{"source": "patent US10662230B2", "about": "“Cyclic RGD cell-binding motif and uses thereof” (Spiber Technologies AB, priority 2015, dated 2020)", "molecules": {"B1": {"name": "FNCC-silk: recombinant spider silk protein 4RepCT with N-terminal cysteine-looped RGD motif CTGRGDSPAC (SEQ ID NO: 10) (protein)", "chain": "GPNSCTGRGDSPACGSASGQGGYGGLGQGGYGQGAGSSAAAAAAAAAAAAGGQGGQGQGGYGQGSGGSAAAAAAAAAAAAAAAGRGQGGYGQGSGGNAAAAAAAAAAAAAAAGQGGQGGYGRQSQGAGSAAAAAAAAAAAAAAGSGQGGYGGQGQGGYGQSSASASAAASAASTVANSVSRLSSPSAVSRVSSAVSSLVSNGQVNMAALPNIISNISSSVSASAPGASGCEVIVQALLEVITALVQIVSSSSVGYINPSAVNQITNVVANAMAQVMG", "modifications": "cyclic disulfide loop; Fusion protein; DISULFID (5)..(14)"}}, "key": {"[1]": {"test_system": "MIN6-m9 pancreatic cell line", "test": "Cell culture on FNCC silk coatings", "format": "cell-based", "settings": "coating 0.1 mg/ml", "description": "(§1) After purification, solutions of FNCC-silk protein (SEQ ID NO: 13) were used to coat cell culture plates (Sarstedt, hydrophobic plates for suspension cells). Briefly, the protein solutions were diluted to 0.1 mg/ml in Tris buffer, and allowed to incubate at room temperature for 30 minutes before removal and wash.\n(§2) Cells were harvested using trypsination (TrpLE) and seeded onto the FNcc-silk coatings at suitable cell density (3-10 000 cells/cm2). Cell growth was monitored with Alamar Blue cell viability assay (Molecular Probes) regularly (every 2-3 day). At the end point, after 7-14 days, Live/dead staining was performed."}, "[2]": {"test_system": "Mouse Mesenchymal stem cells", "test": "Cell culture on FNCC silk coatings", "format": "cell-based", "settings": "coating 0.1 mg/ml", "description": "as §1, §2"}, "[3]": {"test_system": "Human Skeletal Muscle Satellite Cells", "test": "Cell culture on FNCC silk coatings", "format": "cell-based", "settings": "coating 0.1 mg/ml", "description": "as §1, §2"}, "[4]": {"test_system": "Human Mesenchymal stem cells", "test": "Cell culture on FNCC silk coatings", "format": "cell-based", "settings": "coating 0.1 mg/ml", "description": "as §1, §2"}, "[5]": {"test_system": "HaCaT Keratinocytes", "test": "Cell culture on FNCC silk coatings", "format": "cell-based", "settings": "coating 0.1 mg/ml", "description": "as §1, §2"}, "[6]": {"test_system": "Human Dermal fibroblasts", "test": "Cell culture on FNCC silk coatings", "format": "cell-based", "settings": "coating 0.1 mg/ml", "description": "as §1, §2"}, "[7]": {"test_system": "Human Dermal Microvascular Endothelial Cells", "test": "Cell culture on FNCC silk coatings", "format": "cell-based", "settings": "coating 0.1 mg/ml", "description": "as §1, §2"}, "[8]": {"test_system": "Normal human epidermal keratinocytes (KC)", "test": "Early attachment assay, keratinocytes on silk films", "format": "cell-based", "description": "Normal human epidermal keratinocytes from adult skin (NHEK-ad) were purchased from Lonza. Subculture, proliferation and migration experiments were done in KGM-Gold (Lonza), containing bovine pituitary extract, whereas adhesion experiments were performed in KGM-CD (chemically defined), supplemented with CaCl2) to give 1.2 mM Ca^2+.\nCells were harvested at passage 3-8, seeded at 20 000/cm^2 and allowed to adhere to the films or controls for 1 h in a cell incubator before gentle washing twice with pre-warmed phosphate buffered saline (PBS) followed by 10 min fixation with 96% ethanol. After three washings in water, cells were stained for 30 min with 0.1% Crystal Violet in H2O. Plates were dried after extensive washing in water.\nAttachment and morphology of cells bound to the films obtained in Example 3 were documented by taking micrographs at 2× and 10× magnification in an inverted bright field microscope. The color was then dissolved in 40 μL 20% acetic acid for 10 min, and 35 μL of the solution was transferred to a 384-well plate for optical density measurement at 595 nm (TECAN Infinite M200). Wells with cells fixed without pre-washing was used as positive control. Wells with no cells were used as blank. Experiments were run in hexaplicates and repeated three times.\nDetermination of cell coverage area within a defined region (9.12 mm^2) of the micrographs (at 2× magnification) was done using the software NIS elements BR (Nikon).\nAfter seeing this positive effect of the introduced FNCC motif, we wanted to find out how well the FNCC-silk would compare to native, full length fibronectin, where the RGD is presented on a turn loop constrained by the structure. We therefore used fibronectin from bovine plasma (BFN) to coat cell culture wells, as well as naked cell culture treated plastic (TCT), on which KC can be cultured, as a control. Serum-free experimental conditions was chosen to avoid possible interactions between the matrices and serum proteins that potentially could give rise to increased cell adherence.\nFor this purpose, we used two FN-silk variants where a linear RGD presentation is expected (FIG. 1a). The first variant (FNVS; SEQ ID NO: 15), contains the original sequence of the RGD-containing motif in fibronectin, to show the effect of the native flanking amino acids without influence of the loop conformation. In the second variant (FNSS; SEQ ID NO: 14), the two flanking cysteines in FNCC were substituted for serine, which resembles cysteine but lacks the —SH-group and is therefore unable to form disulfide bridges. The different FN-silk variants, as well as RGD-silk (SEQ ID NO: 16) and WT-silk (SEQ ID NO: 2), were evaluated with primary KC. Cells were analyzed both for early attachment (FIG. 5), spreading and formation of stress fibers (FIG. 6), and focal adhesions (FIG. 7). Early attachment assay and cellular stainings were performed as detailed in Example 6."}, "[9]": {"test_system": "primary keratinocytes (NHEK)", "test": "Cell viability analysis with Alamar Blue", "format": "cell-based, human", "settings": "seeding 3 500 cells/cm^2, day 3 and day 6", "description": "For microscopic studies, the proteins were casted as films in chamber glass slides (LabTekII). For Alamar blue experiments, where whole well coverage is desired, the cell culture wells were coated with a covering protein solution of 0.3 mg/ml for 2 h before the liquid was removed. Films and coated surfaces were allowed to dry over night at 25° C. and 30% rh under sterile conditions, then washed twice with sterile 20 mM phosphate buffer, pH 7.4, and pre-incubated with complete cell culture medium for 1 h at 37° C. with 5% CO2 before cell seeding.\nCell growth of primary keratinocytes (NHEK) after initial low seeding density 3 500 cells/cm^2 on wells coated with films of WT-silk (SEQ ID NO: 2) or FNCC-silk (SEQ ID NO: 13) in 96-well plates was monitored with Alamar Blue cell viability assay (Molecular Probes) every third day during the culture period. After 4 h incubation with Alamar blue (diluted 1:10 in cell culture medium), fluorescence intensity of 90 μL supernatants from the cultures was measured with a fluorescence plate reader (CLARIOstar, BMG Labtech) using excitation at 544 nm and emission at 595 nm. Two independent experiments were performed where films were analysed in hexaplicates. Fluorescence intensities, correlating the number of living cells in each well, were plotted over time to yield growth profiles of cells seeded on silk with different cell binding motifs."}}, "note": "Entries after “also recorded” stand apart in the source; their conditions may differ."}
{"molecule": "B1", "values": [{"measurement": "growth profile (Alamar Blue)", "setting": "[1]; 7-14 days", "result": "positive growth profile"}, {"measurement": "viable cells at the end point (Live/dead staining)", "setting": "[1]; after 7-14 days", "result": "> 80", "unit": "%"}, {"measurement": "growth profile (Alamar Blue)", "setting": "[2]; 7-14 days", "result": "positive growth profile"}, {"measurement": "viable cells at the end point (Live/dead staining)", "setting": "[2]; after 7-14 days", "result": "> 80", "unit": "%"}, {"measurement": "growth profile (Alamar Blue)", "setting": "[3]; 7-14 days", "result": "positive growth profile"}, {"measurement": "viable cells at the end point (Live/dead staining)", "setting": "[3]; after 7-14 days", "result": "> 80", "unit": "%"}, {"measurement": "growth profile (Alamar Blue)", "setting": "[4]; 7-14 days", "result": "positive growth profile"}, {"measurement": "viable cells at the end point (Live/dead staining)", "setting": "[4]; after 7-14 days", "result": "> 80", "unit": "%"}, {"measurement": "growth profile (Alamar Blue)", "setting": "[5]; 7-14 days", "result": "positive growth profile"}, {"measurement": "viable cells at the end point (Live/dead staining)", "setting": "[5]; after 7-14 days", "result": "> 80", "unit": "%"}, {"measurement": "growth profile (Alamar Blue)", "setting": "[6]; 7-14 days", "result": "positive growth profile"}, {"measurement": "viable cells at the end point (Live/dead staining)", "setting": "[6]; after 7-14 days", "result": "> 80", "unit": "%"}, {"measurement": "growth profile (Alamar Blue)", "setting": "[7]; 7-14 days", "result": "positive growth profile"}, {"measurement": "viable cells at the end point (Live/dead staining)", "setting": "[7]; after 7-14 days", "result": "> 80", "unit": "%"}, {"measurement": "adhesion in each individual experiment", "setting": "[8]; KC on tested silk films", "result": "most efficient adhesion of the tested films"}, {"measurement": "attachment seen in micrographs", "setting": "[8]; KC, 1 h adhesion to film, crystal violet staining", "result": "clear improvement of attachment is seen on the FNCC films compared to both RGD and WT"}, {"measurement": "cell coverage area within a defined region (9.12 mm^2)", "setting": "[8]; KC, 1 h adhesion to silk films, seeding 20 000/cm2", "result": "increased attachment (i.e. area covered by cells) compared to both FNSS and FNVS; also recorded: significantly higher adhesion of KC compared to RGD-silk"}, {"measurement": "cell coverage area within a defined region (9.12 mm^2)", "setting": "[8]; KC, 1 h adhesion to silk films, seeding 20 000/cm2, listed as FNCC", "result": "significantly larger than on both WT- and RGD-silk"}, {"measurement": "cell coverage area within a defined region (9.12 mm^2)", "setting": "[8]; KC, 1 h adhesion, comparison with bovine fibronectin coating and TCT plastic, serum-free", "result": "bound equally well to the BFN and the FNCC-silk after 1 h adherence, and importantly both significantly better than TCT"}, {"measurement": "OD of dissolved crystal violet", "setting": "[8]; KC, 1 h adhesion, pooled data from 8 experiments (data not shown)", "result": "very similar results"}, {"measurement": "effect of reducing agents added to the silk solution before films were casted", "setting": "[8]; KC, DTT, β-mercaptoethanol or TCEP added", "result": "no differences compared to non-reduced FNCC film were detected"}, {"measurement": "level of viable cells (Alamar Blue fluorescence)", "setting": "[9]", "result": "increased level of viable cells on FNCC-silk compared to WT-silk"}]}
